Results published in patent publication US10677782B2, “Methods of determining interferon having direct inhibitory effects on tumors and uses thereof” (SUPERLAB FAR EAST LIMITED, priority 2013, dated 2020).

Columns and labels:
[1] = Tolerability and body weight of tumor-bearing mice, Example 2; format: in vivo, BALB/cA nu/nu mice
Protocol: Animals were assigned to treatment groups randomly. Initially, all animals were placed in one large animal cage. For assignment to the study, they were later separately housed, with 6 animals per cage per treatment group. Groups 1 and 2 are Control groups in which the animals were each administered the vehicle every other day after the first treatment. […] The animals in Groups 4, 5 and 6 were each given rSIFN-co every other day after the first treatment at 0.15 mg/mouse (Group 4) or 0.10 mg/mouse (Group 5) or 0.05 mg/mouse (Group 6), respectively. Tumor growth was monitored by measuring the length and width of each tumor twice a week during the course of the study. Each animal was also weighed twice a week during the course of the study.
The study was conducted as in Example 1 except as specifically indicated otherwise. Human cervical cancer xenografts were first established and prepared in a similar manner as in Example 1, by inoculating 5×10^6 Hela cells subcutaneously in nude mice and passaging the well-grown xenografts twice in nude mice. Then 1.5 mm^3 fragments were prepared for s.c. implantation into the animals. The body weight of the animals averaged 19±2 g at dose initiation In contrast to Example 1, the animals used were all female.

A549 tumor cells = experiment: Cell viability over 1-6 days, MTT assay; format: cell-based, human; details: 10 μg/ml
Protocol: The cell survival rate was evaluated in a standard MTT assay (3-(4,5-dimethylthiazol-2-yl)-2,5-diphenyltetrazolium bromide assay, Sigma, St. Louis, Mo.). For the assay, about 20 μl MTT (at […]) was added to each well. The cells were incubated at 37° C. for 4 hr. After that, the supernatant of each well was drawn off carefully and then an equal volume (150 microliter) of dimethyl sulfoxide (DMSO) was added to each well and mixed thoroughly on a shaker for 15 min. The absorbance from the plates was read at 595 nm with a Thermo Scientific Microplate Reader (Thermo Fisher Scientific Inc., Lowell, Mass.). The relative cell viability was calculated as follows: Cell viability=(Treated group(OD595) minus blank(OD595))/(Control group(OD595) minus blank(OD595))×100%.

B1: rSIFN-co: Recombinant super-compound interferon; amino acid sequence SEQ ID NO: 1 (same as interferon alfacon-1), encoded by SEQ ID NO: 2, novel tertiary structure (protein)
chain: MCDLPQTHSLGNRRALILLAQMRRISPFSCLKDRHDFGFPQEEFDGNQFQKAQAISVLHEMIQQTFNLFSTKDSSAAWDESLLEKFYTELYQQLNDLEACVIQEVGVEETPLMNVDSILAVKKYFQRITLYLTEKKYSPCAWEVVRAEIMRSFSLSTNLQERLRRKE
modifications: Amino acid sequence of recombinant interferon
- tolerability: signs of toxicity ([1]; 0.05-0.15 mg/mouse i.t. every other day, 28 days): no signs of toxicity
- change in average body weight ([1]; 28-day treatment period): Very little change
- cell viability, time dependent effect (A549 tumor cells): apparent for A549 cells for only about the first 3 days of treatment
